Data on one protein can be found in publication PMC6882556, “Cryo-EM structure of the KvAP channel reveals a non-domain-swapped voltage sensor topology” (eLife, 2019).

Broadly, the stoichiometry N is the number of molecules, sites or subunits per partner or assembly.

This data set concerns the molecule itself. In words: cryo-EM structure; KvAP(12-282) tetramer purified as a complex with 6E1 Fab; 20 mM Tris-HCl pH 8.0, 150 mM KCl, 0.06% digitonin; C4 symmetry applied; final map ~5.9 Å.

B1: KvAP, voltage-gated K+ channel from Aeropyrum pernix (residues 12-282) (natural protein, UniProt Q9YDF8 25-295, looked up)
chain: GGRVRNIGDVMEHPLVELGVSYAALLSVIVVVVEYTMQLSGEYLVRLYLVDLILVIILWADYAYRAYKSGDPAGYVKKTLYEIPALVPAGLLALIEGHLAGLGLFRLVRLLRFLRILLIISRGSKFLSAIADAADKIRFYHLFGAVMLTVLYGAFAIYIVEYPDPNSSIKSVFDALWWAVVTATTVGYGDVVPATPIGKVIGIAVMLTGISALTLLIGTVSNMFQKILVGEPEPSCSPAKLAEMVSSMSEEEFEEFVRTLKNLRRLENSMK
notes: KvAP, voltage-gated potassium channel of Aeropyrum pernix, residues 12-282; In the cryo-EM sample the tetramer carried 6E1 Fab fragments on its voltage sensors; also called KvAP tetramer
As to B1, the “stoichiometry N” value worked out at 4.
